As usually defined, the kcat is the number of substrate molecules converted per active site and unit of time at saturation. In general, KM refers to the substrate concentration at which the rate is half of its maximum. By kcat/KM is commonly meant the turnover number divided by the Michaelis constant.

Data on 43 substances can be found in patent publication US20210230570.

Data set [1] relates to plasma purified human AT-III (antithrombin III), in complex with low molecular weight heparin. Nature of the data set: same assay; ratio of K0.5 to that of Catalyst Biosciences WT FIXa.
For data set [2], the system named is Antithrombin III (AT-III), plasma purified human, in complex with full-length unfractionated heparin (UFH).
The target of data set [3] is Factor X (FX), active site titrated and DFP/EGR-cmk treated zymogen (UniProt P00742).
Factor X (FX), active site titrated and DFP/EGR-cmk treated zymogen, sequence (P00742 41-488): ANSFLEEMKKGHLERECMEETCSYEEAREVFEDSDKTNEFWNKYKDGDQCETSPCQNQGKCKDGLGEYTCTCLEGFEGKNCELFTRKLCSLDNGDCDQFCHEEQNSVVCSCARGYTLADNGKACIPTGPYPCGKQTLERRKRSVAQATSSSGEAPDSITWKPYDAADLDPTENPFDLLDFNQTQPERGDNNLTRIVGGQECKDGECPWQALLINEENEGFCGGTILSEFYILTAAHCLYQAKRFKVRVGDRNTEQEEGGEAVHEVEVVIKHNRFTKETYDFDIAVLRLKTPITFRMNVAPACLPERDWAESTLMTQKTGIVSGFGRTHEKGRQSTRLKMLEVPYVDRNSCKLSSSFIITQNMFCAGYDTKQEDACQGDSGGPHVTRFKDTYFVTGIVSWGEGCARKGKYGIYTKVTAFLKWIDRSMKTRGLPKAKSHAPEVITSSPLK
For data set [4], the target named is Factor X (FX) (UniProt P00742).
Factor X (FX), sequence (P00742 41-488): as above
Data set [5] has as its target Factor X (UniProt P00742).

Factor X, sequence (P00742 41-488): as above

For “BeneFIX Coagulation Factor IX (Recombinant), activated (FIXa)”, the K0.5-mut/K0.5-wt in data set [1] is 0.9.

In data set [2], FIXa A103N/N105S had a K0.5 of 20 nM and a K0.5-mut/K0.5-wt of 1. Turning to “FIXa A103N/N105S (A[103]N/N[105]S by chymotrypsin numbering)”, the catalytic constant (kcat) in data set [3] came to 3.1 s⁻¹. In data set [2], FIXa A103N/N105S/Y155F gave a K0.5 of 11 nM and a K0.5-mut/K0.5-wt of 0.6. As for “FIXa A103N/N105S/Y155F (A[103]N/N[105]S/Y[155]F by chymotrypsin numbering)”, the kcat in data set [3] was found to be 3.2 s⁻¹.

In data set [2], FIXa D64A registered a K0.5 of 16 nM and a K0.5-mut/K0.5-wt of 0.8. For the substance “FIXa D64A (D[64]A by chymotrypsin numbering)”, the kcat in data set [3] was 0.3 s⁻¹. In the case of “FIXa D64N (D[64]N by chymotrypsin numbering)”, the kcat in data set [3] is 1.2 s⁻¹. Regarding FIXa D85N, in data set [2], the K0.5 was 17 nM and the K0.5-mut/K0.5-wt was 0.9. Take “FIXa D85N (D[85]N by chymotrypsin numbering)”: in data set [3], the kcat was 4.2 s⁻¹. In data set [2], FIXa D104N/K106S showed a K0.5 of 20 nM and a K0.5-mut/K0.5-wt of 1. “FIXa D104N/K106S (D[104]N/K[106]S by chymotrypsin numbering)”: in data set [3], the kcat came to 3.1 s⁻¹.

In data set [2], FIXa D104N/K106S/Y155F came in with a K0.5 of 6 nM and a K0.5-mut/K0.5-wt of 0.3.

Regarding “FIXa D104N/K106S/Y155F (D[104]N/K[106]S/Y[155]F by chymotrypsin numbering)”, the kcat in data set [3] is 2.9 s⁻¹. In the case of FIXa K5A, the KM in data set [4] was 0.0654 µM. In data set [2], this substance showed a K0.5 of 22 nM and a K0.5-mut/K0.5-wt of 1.2. On to “FIXa K5A (K[5]A by chymotrypsin numbering)”, for which the kcat in data set [3] came out at 3.1 s⁻¹. For FIXa N157D, the K0.5 in data set [2] was found to be 17 nM.

On to FIXa N157Q, for which the K0.5 in data set [2] turned out to be 16 nM. In turn, FIXa N167D had a K0.5 in data set [2] of 12 nM. The substance FIXa N167Q yielded a K0.5 in data set [2] of 12 nM. In data set [2], FIXa S53A displayed a K0.5 of 27 nM and a K0.5-mut/K0.5-wt of 1.4.

Regarding “FIXa S53A (S[53]A by chymotrypsin numbering)”, the kcat in data set [3] worked out at 3.7 s⁻¹. In data set [2], FIXa S61A displayed a K0.5 of 19 nM and a K0.5-mut/K0.5-wt of 1. FIXa S158D returned a K0.5 in data set [2] of 15 nM. Same read-out and setting: the result for FIXa S158E reads 14 nM; that for FIXa T159A, 33 nM. Same read-out and setting: the result for FIXa T169A reads 17 nM; that for FIXa T172A, 16 nM. Still for that read-out and setting: the result for FIXa Y155F reads 13 nM. In data set [2], FIXa Y155H came in with a K0.5 of 25 nM. The same measure, in the same setting: the result for FIXa Y155Q reads 23 nM. In the case of FIXa-A103N/N105S, in data set [1], the K0.5-mut/K0.5-wt amounted to 1.1. Turning to FIXa-A103N/N105S/Y155F, in data set [4], the “% of WT (kcat/KM)” value worked out at 85% and the kcat/KM (M^-1s^-1) amounted to 3.9e+07 M⁻¹ s⁻¹. Moreover, the kcat in data set [5] is 3.2 s⁻¹. As for FIXa-D64A, the kcat/KM (M^-1s^-1) in data set [4] came to 2.5e+06 M⁻¹ s⁻¹. In data set [5], the kcat is 0.3 s⁻¹. The matching figures for FIXa-D64N: 1e+07 M⁻¹ s⁻¹ and 1.2 s⁻¹. In the case of FIXa-D85N, in data set [1], the K0.5-mut/K0.5-wt was 1.1. Besides, in data set [4], the “% of WT (kcat/KM)” value came out at 153%, the kcat/KM is 7e+07 M⁻¹ s⁻¹ and the kcat/KM (M^-1s^-1) amounted to 7.3e+07 M⁻¹ s⁻¹. Moreover, the kcat in data set [5] was 4.1 s⁻¹.

With FIXa-D104N/K106S, the K0.5-mut/K0.5-wt in data set [1] turned out to be 0.9. In addition, in data set [4], the “% of WT (kcat/KM)” value came to 83% and the kcat/KM (M^-1s^-1) was 3.8e+07 M⁻¹ s⁻¹. Take FIXa-D104N/K106S/Y155F: in data set [4], the “% of WT (kcat/KM)” value was 78% and the kcat/KM (M^-1s^-1) amounted to 3.6e+07 M⁻¹ s⁻¹. Besides, the kcat in data set [5] came to 2.9 s⁻¹. On to FIXa-K5A, for which the kcat in data set [5] came to 3.5 s⁻¹.

Turning to FIXa-K106N/V108S, the K0.5-mut/K0.5-wt in data set [1] worked out at 1.6. Also, in data set [4], the “% of WT (kcat/KM)” value came to 60% and the kcat/KM (M^-1s^-1) is 2.8e+07 M⁻¹ s⁻¹. Also, the kcat in data set [5] is 2.5 s⁻¹. As to FIXa-S53A, in data set [4], the “% of WT (kcat/KM)” value was found to be 76% and the kcat/KM (M^-1s^-1) came out at 3.5e+07 M⁻¹ s⁻¹. Also, in data set [5], the kcat is 3.7 s⁻¹. Consider FIXa-S61A, for which, in data set [4], the “% of WT (kcat/KM)” value amounted to 105% and the kcat/KM (M^-1s^-1) came to 4.8e+07 M⁻¹ s⁻¹. Consider Plasma Purified FIXa, for which the K0.5 in data set [2] is 30 nM.
